Here are results for one molecule from publication PMC5603870 (2017).

The target in this assay is T1, CD20 (Homo sapiens, UniProt P11836).
T1 chain: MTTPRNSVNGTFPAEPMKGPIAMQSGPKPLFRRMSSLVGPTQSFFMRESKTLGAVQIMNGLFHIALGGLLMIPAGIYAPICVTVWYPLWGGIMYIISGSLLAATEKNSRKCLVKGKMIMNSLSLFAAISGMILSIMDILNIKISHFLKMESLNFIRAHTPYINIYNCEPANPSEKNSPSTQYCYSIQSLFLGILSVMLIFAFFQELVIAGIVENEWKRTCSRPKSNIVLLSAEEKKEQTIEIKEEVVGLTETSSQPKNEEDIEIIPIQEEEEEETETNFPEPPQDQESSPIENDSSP
The assay can be described thus: saturation binding.

B1: Rituximab (antibody, V domains shown)
VH: QVQLQQPGAELVKPGASVKMSCKASGYTFTSYNMHWVKQTPGRGLEWIGAIYPGNGDTSYNQKFKGKATLTADKSSSTAYMQLSSLTSEDSAVYYCARSTYYGGDWYFNVWGAGTTVTVSA
VL: QIVLSQSPAILSASPGEKVTMTCRASSSVSYIHWFQQKPGSSPKPWIYATSNLASGVPVRFSGSGSGTSYSLTISRVEAEDAATYYCQQWTSNPPTFGGGTKLEIK
modifications: 90Y-DOTA conjugated
Take B1: binding was put at a Kd of 2.84 nM.
